Data: PMC10814857, “Functional Classification and Interaction Selectivity Landscape of the Human SH3 Domain Superfamily” (Cells, 2024)
Read-outs that look alike come from different tables or passages of the source.

Assays:
Experiment in all cases: FP
[1] = biological target: P3, fluorescein-labelled proline-rich peptide from the SOS1 proline-rich domain (human) (UniProt Q07889)
[2] = biological target: P7, fluorescein-labelled proline-rich peptide from the SOS1 proline-rich domain (human) (UniProt Q07889)
[3] = biological target: P2, fluorescein-labelled proline-rich peptide from the SOS1 proline-rich domain (human) (UniProt Q07889)
[4] = biological target: RP2, fluorescein-labelled reference peptide from the N-terminal extension of the RHO GTPase WRCH1/RHOU (human) (UniProt Q7L0Q8)
RP2, fluorescein-labelled reference peptide from the N-terminal extension of the RHO GTPase WRCH1/RHOU (human), sequence (Q7L0Q8 whole entry, looked up, the tested form may be a part): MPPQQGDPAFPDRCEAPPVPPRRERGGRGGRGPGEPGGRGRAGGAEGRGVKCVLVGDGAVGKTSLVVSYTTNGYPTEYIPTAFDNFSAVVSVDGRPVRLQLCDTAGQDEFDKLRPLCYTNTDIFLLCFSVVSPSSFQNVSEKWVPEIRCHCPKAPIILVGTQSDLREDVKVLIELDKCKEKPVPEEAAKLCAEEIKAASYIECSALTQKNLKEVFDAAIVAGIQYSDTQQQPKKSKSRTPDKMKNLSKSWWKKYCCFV

[5] = biological target: P5, fluorescein-labelled proline-rich peptide from the SOS1 proline-rich domain (human) (UniProt Q07889)
[6] = biological target: P4, fluorescein-labelled proline-rich peptide from the SOS1 proline-rich domain (human) (UniProt Q07889)
[7] = biological target: RP1, fluorescein-labelled reference peptide, a SOS1 derivative encompassing part of P3 (human) (UniProt Q07889)
[8] = biological target: P1, fluorescein-labelled proline-rich peptide from the SOS1 proline-rich domain (human) (UniProt Q07889)

CRK-1 SH3 domain, GST cleaved, sequence (P46108 127-301): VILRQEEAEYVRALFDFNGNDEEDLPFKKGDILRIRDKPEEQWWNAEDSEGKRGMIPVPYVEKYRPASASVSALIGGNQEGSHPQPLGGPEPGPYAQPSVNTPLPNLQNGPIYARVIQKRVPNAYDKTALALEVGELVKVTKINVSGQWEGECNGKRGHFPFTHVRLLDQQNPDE

Row | Kd [1] | Kd [2] | Kd [4] | Kd [6] | Kd [7] | Substance | also measured
1 | 2 µM | 13.3 µM | – | – | – | SRC | –
2 | 18 µM | – | 21 µM | – | – | SH3PXD2A-1 | Kd [3]: 44 µM
3 | 15 µM | – | – | 60 µM | 11 µM | GRB2-1 | Kd [5]: 62 µM
4 | – | – | – | – | – | CRK-1 SH3 domain, GST cleaved (from UniProt P46108) | Kd ([1]; domain or fragment): 12.9 µM; Kd ([2]; domain or fragment): 18.1 µM
5 | 12 µM | – | – | 20 µM | 3.4 µM | GRB2-2 | Kd [5]: 35 µM
6 | – | 15 µM | – | – | – | RIMBP3B-1 | Kd [3]: 21 µM
7 | – | 13.2 µM | – | – | – | SORBS1-1 | –
8 | – | – | 11 µM | 6.6 µM | 39 µM | ITSN1-1 | –
9 | – | – | 23 µM | 12 µM | – | ITSN1-5 | Kd [8]: 23 µM
